These results are taken from article PMC4778049, “A Helitron transposon reconstructed from bats reveals a novel mechanism of genome shuffling in eukaryotes” (Nature Communications, 2016).

For data set [1], the target named is T1, Helraiser transposase (Myotis lucifugus, UniProt Z9MI32ZQP9, K1068Q).
T1 construct: full-length synthesized consensus transposase, 1,496 aa (N-terminal domain, Rep HUH nuclease, SF1 helicase); baculovirus expression, purified
T1 sequence (Z9MI32ZQP9 1-1496 K1068Q): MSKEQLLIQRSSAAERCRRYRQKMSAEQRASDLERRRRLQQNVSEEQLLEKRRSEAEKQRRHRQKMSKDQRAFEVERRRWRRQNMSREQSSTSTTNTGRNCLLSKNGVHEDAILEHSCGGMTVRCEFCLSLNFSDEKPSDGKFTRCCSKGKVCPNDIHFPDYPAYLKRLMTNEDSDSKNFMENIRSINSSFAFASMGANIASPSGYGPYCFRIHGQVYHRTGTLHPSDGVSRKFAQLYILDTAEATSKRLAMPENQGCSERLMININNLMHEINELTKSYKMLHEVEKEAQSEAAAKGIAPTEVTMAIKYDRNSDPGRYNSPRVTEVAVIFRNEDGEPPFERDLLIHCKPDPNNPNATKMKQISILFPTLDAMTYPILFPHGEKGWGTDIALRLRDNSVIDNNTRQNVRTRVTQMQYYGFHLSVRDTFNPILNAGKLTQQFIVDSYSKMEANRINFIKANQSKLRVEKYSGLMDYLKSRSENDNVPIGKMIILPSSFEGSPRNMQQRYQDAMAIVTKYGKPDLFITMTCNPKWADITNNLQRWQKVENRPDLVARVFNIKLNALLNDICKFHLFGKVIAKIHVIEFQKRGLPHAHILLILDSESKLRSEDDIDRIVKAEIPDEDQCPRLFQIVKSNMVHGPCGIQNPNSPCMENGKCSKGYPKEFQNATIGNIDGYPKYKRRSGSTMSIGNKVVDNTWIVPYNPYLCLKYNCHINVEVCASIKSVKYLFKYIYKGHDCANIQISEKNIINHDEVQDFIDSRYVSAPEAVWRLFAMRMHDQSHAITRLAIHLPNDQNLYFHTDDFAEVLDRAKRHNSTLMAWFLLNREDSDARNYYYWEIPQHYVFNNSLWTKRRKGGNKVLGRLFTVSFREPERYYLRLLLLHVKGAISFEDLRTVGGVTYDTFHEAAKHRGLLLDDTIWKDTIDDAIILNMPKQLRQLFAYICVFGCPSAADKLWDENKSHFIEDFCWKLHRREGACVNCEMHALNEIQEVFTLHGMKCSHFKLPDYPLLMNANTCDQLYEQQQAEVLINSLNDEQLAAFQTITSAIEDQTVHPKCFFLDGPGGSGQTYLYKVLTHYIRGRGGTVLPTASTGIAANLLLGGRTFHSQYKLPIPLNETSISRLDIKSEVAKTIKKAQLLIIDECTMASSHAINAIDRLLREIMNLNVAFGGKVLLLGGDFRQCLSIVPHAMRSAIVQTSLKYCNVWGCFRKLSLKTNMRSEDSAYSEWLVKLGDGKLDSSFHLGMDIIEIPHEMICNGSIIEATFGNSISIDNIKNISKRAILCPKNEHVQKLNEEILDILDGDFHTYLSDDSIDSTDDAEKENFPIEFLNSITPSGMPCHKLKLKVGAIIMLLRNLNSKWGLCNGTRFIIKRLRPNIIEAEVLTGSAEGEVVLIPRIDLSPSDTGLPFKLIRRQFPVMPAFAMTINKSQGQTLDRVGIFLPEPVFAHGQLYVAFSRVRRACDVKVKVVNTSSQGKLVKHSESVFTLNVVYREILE
Briefly: colorimetric ATPase assay (pyrophosphate release as printed). In kind it is biochemical. As to conditions: Walker A mutant; ATP hydrolysis abolished.

Substrate in data set [2]: Nc1ncnc2c1ncn2[C@@H]1O[C@H](COP(=O)(O)OP(=O)(O)OP(=O)(O)O)[C@@H](O)[C@H]1O
The description is as above. The conditions noted are these: DNA, metal, pH and temperature of the Km measurement not told in main text; helicase domain (Walker A) site. Format: biochemical, Myotis lucifugus.

Regarding `Nc1ncnc2c1ncn2[C@@H]1O[C@H](COP(=O)(O)OP(=O)(O)OP(=O)(O)O)[C@@H](O)[C@H]1O` [ATP], in data set [1], the “colorimetric ATPase assay (pyrophosphate release as printed)” value is listed as “Mutation of the Walker A motif K1068 abolished ATP hydrolysis”.

B1: Helraiser transposase (Myotis lucifugus) (protein)
chain: MSKEQLLIQRSSAAERCRRYRQKMSAEQRASDLERRRRLQQNVSEEQLLEKRRSEAEKQRRHRQKMSKDQRAFEVERRRWRRQNMSREQSSTSTTNTGRNCLLSKNGVHEDAILEHSCGGMTVRCEFCLSLNFSDEKPSDGKFTRCCSKGKVCPNDIHFPDYPAYLKRLMTNEDSDSKNFMENIRSINSSFAFASMGANIASPSGYGPYCFRIHGQVYHRTGTLHPSDGVSRKFAQLYILDTAEATSKRLAMPENQGCSERLMININNLMHEINELTKSYKMLHEVEKEAQSEAAAKGIAPTEVTMAIKYDRNSDPGRYNSPRVTEVAVIFRNEDGEPPFERDLLIHCKPDPNNPNATKMKQISILFPTLDAMTYPILFPHGEKGWGTDIALRLRDNSVIDNNTRQNVRTRVTQMQYYGFHLSVRDTFNPILNAGKLTQQFIVDSYSKMEANRINFIKANQSKLRVEKYSGLMDYLKSRSENDNVPIGKMIILPSSFEGSPRNMQQRYQDAMAIVTKYGKPDLFITMTCNPKWADITNNLQRWQKVENRPDLVARVFNIKLNALLNDICKFHLFGKVIAKIHVIEFQKRGLPHAHILLILDSESKLRSEDDIDRIVKAEIPDEDQCPRLFQIVKSNMVHGPCGIQNPNSPCMENGKCSKGYPKEFQNATIGNIDGYPKYKRRSGSTMSIGNKVVDNTWIVPYNPYLCLKYNCHINVEVCASIKSVKYLFKYIYKGHDCANIQISEKNIINHDEVQDFIDSRYVSAPEAVWRLFAMRMHDQSHAITRLAIHLPNDQNLYFHTDDFAEVLDRAKRHNSTLMAWFLLNREDSDARNYYYWEIPQHYVFNNSLWTKRRKGGNKVLGRLFTVSFREPERYYLRLLLLHVKGAISFEDLRTVGGVTYDTFHEAAKHRGLLLDDTIWKDTIDDAIILNMPKQLRQLFAYICVFGCPSAADKLWDENKSHFIEDFCWKLHRREGACVNCEMHALNEIQEVFTLHGMKCSHFKLPDYPLLMNANTCDQLYEQQQAEVLINSLNDEQLAAFQTITSAIEDQTVHPKCFFLDGPGGSGKTYLYKVLTHYIRGRGGTVLPTASTGIAANLLLGGRTFHSQYKLPIPLNETSISRLDIKSEVAKTIKKAQLLIIDECTMASSHAINAIDRLLREIMNLNVAFGGKVLLLGGDFRQCLSIVPHAMRSAIVQTSLKYCNVWGCFRKLSLKTNMRSEDSAYSEWLVKLGDGKLDSSFHLGMDIIEIPHEMICNGSIIEATFGNSISIDNIKNISKRAILCPKNEHVQKLNEEILDILDGDFHTYLSDDSIDSTDDAEKENFPIEFLNSITPSGMPCHKLKLKVGAIIMLLRNLNSKWGLCNGTRFIIKRLRPNIIEAEVLTGSAEGEVVLIPRIDLSPSDTGLPFKLIRRQFPVMPAFAMTINKSQGQTLDRVGIFLPEPVFAHGQLYVAFSRVRRACDVKVKVVNTSSQGKLVKHSESVFTLNVVYREILE
notes: full-length synthesized consensus transposase, 1,496 aa (N-terminal domain, Rep HUH nuclease, SF1 helicase); baculovirus expression, purified
With B1, in data set [2], the Km turned out to be 46 ± 3.3 µM and the catalytic constant (kcat) came to 6.8 ± 0.11 s⁻¹.

The term Km denotes the concentration of substrate that gives half-maximal velocity. The term kcat denotes the number of substrate molecules converted per active site and unit of time at saturation.
